Consider 12 molecules from article PMC7664906 (International Journal of Molecular Sciences, 2020).

Where no end group is shown, it is not given here.

For one series, the target named is ECE-1 (Homo sapiens, UniProt P42892).
Chain of ECE-1 (P42892 whole entry, species assumed): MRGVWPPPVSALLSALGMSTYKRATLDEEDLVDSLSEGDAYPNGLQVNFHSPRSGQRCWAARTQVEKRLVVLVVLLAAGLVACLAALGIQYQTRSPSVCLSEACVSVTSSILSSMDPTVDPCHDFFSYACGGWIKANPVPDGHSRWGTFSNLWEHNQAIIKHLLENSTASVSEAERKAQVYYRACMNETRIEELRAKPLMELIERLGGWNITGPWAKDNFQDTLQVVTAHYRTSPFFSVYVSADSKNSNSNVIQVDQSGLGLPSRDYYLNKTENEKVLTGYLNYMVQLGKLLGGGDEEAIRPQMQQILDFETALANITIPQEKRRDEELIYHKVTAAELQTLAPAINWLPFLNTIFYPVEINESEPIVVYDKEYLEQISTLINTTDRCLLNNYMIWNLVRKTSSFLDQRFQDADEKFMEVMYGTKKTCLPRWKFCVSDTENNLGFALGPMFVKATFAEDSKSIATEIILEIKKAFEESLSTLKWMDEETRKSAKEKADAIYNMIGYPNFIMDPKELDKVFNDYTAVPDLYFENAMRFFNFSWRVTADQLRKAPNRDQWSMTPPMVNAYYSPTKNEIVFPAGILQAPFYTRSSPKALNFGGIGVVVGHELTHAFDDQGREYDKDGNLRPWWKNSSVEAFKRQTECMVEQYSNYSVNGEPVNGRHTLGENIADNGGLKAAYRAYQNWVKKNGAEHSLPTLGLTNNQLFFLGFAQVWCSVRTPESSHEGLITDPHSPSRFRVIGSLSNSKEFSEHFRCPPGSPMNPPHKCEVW
Experiment: not given
Particulars: 10 nmol peptide in 750 µl 0.2 M acetate buffer pH 5.5 (GLP-1 also at neutral pH), 0.25 µg recombinant ECE-1, 37 °C, up to 24 h, RP-HPLC C18, UV 214 nm, peak area with versus without enzyme, n = 2-3.
Consider “HAEGTFTSDVSSYLEGQAAKEFIEWLKNGGPSSGAPPPS-NH2 [Chi2]”, for which the “In vitro peptide degradation by / resistance to ECE-1 (in words)” value was “most ECE-1-resistant”. `CC[C@H](C)[C@H](NC(=O)[C@H](Cc1ccccc1)NC(=O)[C@H](CC(C)C)NC(=O)[C@H](CCCNC(=N)N)NC(=O)[C@@H](NC(=O)[C@H](C)NC(=O)[C@H](CCC(=O)O)NC(=O)[C@H](CCC(=O)O)NC(=O)[C@H](CCC(=O)O)NC(=O)[C@H](CC(C)C)NC(=O)[C@H](Cc1ccc(O)cc1)NC(=O)[C@H](CO)NC(=O)[C@H](CO)NC(=O)[C@@H](NC(=O)[C@H](CC(=O)O)NC(=O)[C@H](CO)NC(=O)[C@@H](NC(=O)[C@H](Cc1ccccc1)NC(=O)[C@@H](NC(=O)CNC(=O)[C@H](CCC(=O)O)NC(=O)[C@H](C)NC(=O)[C@@H](N)Cc1c[nH]cn1)[C@@H](C)O)[C@@H](C)O)C(C)C)C(C)C)C(=O)N[C@@H](CCC(=O)O)C(=O)N[C@@H](Cc1c[nH]c2ccccc12)C(=O)N[C@@H](CC(C)C)C(=O)N[C@@H](CCCCN)C(=O)N[C@@H](CC(N)=O)C(=O)NCC(=O)NCC(=O)N1CCC[C@H]1C(=O)N[C@@H](CO)C(=O)N[C@@H](CO)C(=O)NCC(=O)N[C@@H](C)C(=O)N1CCC[C@H]1C(=O)N1CCC[C@H]1C(=O)N1CCC[C@H]1C(=O)N[C@@H](CO)C(N)=O` [Chi3]: the “In vitro peptide degradation by / resistance to ECE-1 (in words)” value is recorded as “most ECE-1-resistant”.

The same series, now with this note: pH 5.5.
`CC[C@H](C)[C@H](NC(=O)[C@H](Cc1ccccc1)NC(=O)[C@H](CCC(=O)O)NC(=O)[C@H](CCCCN)NC(=O)[C@H](C)NC(=O)[C@H](C)NC(=O)[C@H](CCC(N)=O)NC(=O)CNC(=O)[C@H](CCC(=O)O)NC(=O)[C@H](CC(C)C)NC(=O)[C@H](Cc1ccc(O)cc1)NC(=O)[C@H](CO)NC(=O)[C@H](CO)NC(=O)[C@@H](NC(=O)[C@H](CC(=O)O)NC(=O)[C@H](CO)NC(=O)[C@@H](NC(=O)[C@H](Cc1ccccc1)NC(=O)[C@@H](NC(=O)CNC(=O)[C@H](CCC(=O)O)NC(=O)CNC(=O)[C@@H](N)Cc1cnc[nH]1)[C@@H](C)O)[C@@H](C)O)C(C)C)C(=O)N[C@@H](C)C(=O)N[C@@H](Cc1c[nH]c2ccccc12)C(=O)N[C@@H](CC(C)C)C(=O)N[C@H](C(=O)N[C@@H](CCCCN)C(=O)NCC(=O)N[C@@H](CCCNC(=N)N)C(N)=O)C(C)C` [GLP-1-G2]: the “In vitro peptide degradation by / resistance to ECE-1 (in words)” value is reported as “ECE-1-sensitive”.

For another series, the target named is SNAP-GLP-1R (pSNAP-GLP-1R) on HEK293-SNAP-GLP-1R cells (UniProt P43220). As to the kind of experiment: FRET or BRET.
Chain of SNAP-GLP-1R (pSNAP-GLP-1R) on HEK293-SNAP-GLP-1R cells (P43220 24-463): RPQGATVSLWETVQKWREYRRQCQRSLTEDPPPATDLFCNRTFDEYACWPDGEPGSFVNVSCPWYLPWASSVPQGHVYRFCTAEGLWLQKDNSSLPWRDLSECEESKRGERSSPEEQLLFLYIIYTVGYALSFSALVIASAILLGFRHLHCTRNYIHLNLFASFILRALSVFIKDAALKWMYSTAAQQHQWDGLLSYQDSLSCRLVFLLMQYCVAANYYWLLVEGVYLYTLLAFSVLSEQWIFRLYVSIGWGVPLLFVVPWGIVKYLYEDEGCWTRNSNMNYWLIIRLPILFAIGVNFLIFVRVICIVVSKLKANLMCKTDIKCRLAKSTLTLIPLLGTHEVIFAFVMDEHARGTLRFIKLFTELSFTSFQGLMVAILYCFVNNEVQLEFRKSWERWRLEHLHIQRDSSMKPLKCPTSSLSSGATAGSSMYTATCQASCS
Conditions: not given
In general terms: In BRET a luciferase serves as donor, and the signal depends on an acceptor being close.
Take “Chi1, N-terminus F1 (phe1 derivative) (peptide)”: the Log Ki was -6.4 Log (M). The same measure, in the same setting: the same measure for “exendin-4(1-30), N-terminus F1 (phe1 derivative) (peptide)”: -7.5 Log (M); for “exendin-4 (from UniProt P26349 48-87) (peptide)”: -9.5 Log (M). Same read-out and setting: next, exendin-4(1-30) (peptide): -9 Log (M). Still for that read-out and setting: next, exendin-phe1 (peptide): -7.3 Log (M); “Chi1 (GLP-1 with the exendin-4 Trp-cage added to its C-terminus) (peptide)”: -8.2 Log (M); “Chi1, N-terminus D3 (asp3 derivative) (peptide)”: -8.5 Log (M). On to “exendin-4(1-30), N-terminus D3 (asp3 derivative) (peptide)”, for which the Log Ki was -9.2 Log (M).

With “exendin-4, N-terminus D3 (asp3 derivative) (peptide)”, the Log Ki is -9.2 Log (M).
